In patent US20230028110A1 (ADAPTATE BIOTHERAPEUTICS, published 2023):

Legend:
[1] = biological target: Vδ1 chain of the γδ TCR on human Vδ1 γδ T cells (human); experiment: cell-based or functional assay
[2] = biological target: T1, TIGIT on activated CD8 T-cells (human, UniProt Q495A1); experiment: flow cytometry, anti-human IgG secondary antibody, activated CD8 T-cells
T1 sequence (receptor chain, looked up): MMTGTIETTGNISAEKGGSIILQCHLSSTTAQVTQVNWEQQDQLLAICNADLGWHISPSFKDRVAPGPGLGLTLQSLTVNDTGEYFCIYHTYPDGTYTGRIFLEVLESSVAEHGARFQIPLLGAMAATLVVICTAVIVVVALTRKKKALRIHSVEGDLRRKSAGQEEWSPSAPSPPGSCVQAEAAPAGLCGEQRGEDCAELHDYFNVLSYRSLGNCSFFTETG
Procedure: (§1) Initially CD4 and CD8 T-cells were negatively selected by magnetic sorting from PBMC buffy coats extracted from whole blood. […] After washing, cells were incubated for a further 15 minutes with anti-human IgG secondary antibodies before washing and fixing. The amount of antibody bound to each cell type was determined by flow cytometry.

Recombinant human 4-1BB = biological target: T2, Recombinant human 4-1BB (human, UniProt Q07011 24-186); experiment: SPR, Reichert 4SPR; antibody captured on Protein A chip, human 4-1BB flown over
T2 construct: also called CD137
T2 sequence (Q07011 24-186 limits assumed): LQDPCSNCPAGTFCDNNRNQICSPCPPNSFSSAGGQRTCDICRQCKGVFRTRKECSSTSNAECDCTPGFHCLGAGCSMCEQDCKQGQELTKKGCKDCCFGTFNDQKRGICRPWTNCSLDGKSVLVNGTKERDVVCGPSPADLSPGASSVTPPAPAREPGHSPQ
Procedure: (§2) Recombinant human Vδ1 heterodimer or human 4-1BB was flown over the cell at a top concentration of 100 nM.

[3] = biological target: T3, TIGIT on activated CD4 T-cells; experiment: flow cytometry, anti-human IgG secondary antibody, activated CD4 T-cells
T3 chain: T1 sequence (receptor chain, looked up)

Recombinant human TIGIT = biological target: T4, Recombinant human TIGIT (human, UniProt Q495A1 22-141); experiment: SPR, Reichert 4SPR; antibody captured on Protein A chip, human TIGIT flown over
T4 construct: also called T cell immunoreceptor with Ig and ITIM domains
T4 sequence (looked up): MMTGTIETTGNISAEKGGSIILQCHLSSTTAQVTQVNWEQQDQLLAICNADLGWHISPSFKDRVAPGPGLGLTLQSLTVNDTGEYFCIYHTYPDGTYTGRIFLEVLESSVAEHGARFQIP
Procedure: (§3) Recombinant human Vδ1 heterodimer or human TIGIT was flown over the cell at a top concentration of 100 nM.

[4] = biological target: T5, Vδ1 chain of the γδ TCR on human Vδ1 γδ T cells (human); experiment: flow cytometry, Vδ1 γδ T cells of donor ATS006, mAb titrated up to about 500 nM at 4 C, anti-human IgG detection
T5 construct: whole, on cells; also called cell surface Vδ1 TCR; Vδ1-positive γδ T cells
T5 sequence (A0A1B0GX56 22-115, stated change not applied): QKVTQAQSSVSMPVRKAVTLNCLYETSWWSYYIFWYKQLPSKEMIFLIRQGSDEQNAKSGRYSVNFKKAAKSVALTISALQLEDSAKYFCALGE
Procedure: (§4) All incubation steps were performed at 4° C. and mAb binding was determined using flow cytometry to measure the median level of fluorescence. Logarithmic four parameter dose-response curves were fitted using GraphPad Prism 9. […] For Vδ1-positive γδ T cell, data is represented as the mean two donors.
(§5) A range of target cells were assayed to determine the specificity and affinity of Vδ1 mAb binding. This included expanded skin-derived Vδ1 γδ T-cells, HEK293T cells, Raji cells, and multiple leukocyte subsets within human primary blood mononuclear cells. Adherent or semi-adherent cells (skin-derived Vδ1 γδ T-cells, HEK293T) were detached from tissue culture flask and resuspended in PBS. Similarly, non-adherent cell types (Raji, PBMC), were harvested and resuspended in PBS. Cells were seeded at a final density of 100,000 cells per well in v-bottom 96-well plates. Cells underwent centrifugation and the cell pellets were resuspended in FcR blocking reagent according to the manufacturer's instructions, and incubated for 20 minutes at 4C prior to a further wash. […] To determine the quantity of mAb bound to the cell surface, the cells were then stained with a murine anti-human IgG secondary antibody, conjugated to APC (dilution: 1:100). For Vδ1 γδ T-cells, HEK293T and Raji, the cells were also stained solely with a viability dye.

[5] = biological target: T6, L1 (DV1-GV4), soluble human Vδ1/Vγ4 γδ TCR heterodimer in leucine zipper format (human); experiment: SPR (Reichert 4SPR), antibody on Protein A chip, antigen flown over
T6 construct: Biotinylated in the DELFIA ranking; also called Antigen L1 (TRDV1/TRGV4); human DV1-GV4; not shown: gamma chain: Vγ4 (TRGV4) domain on a TCR constant region, leucine zipper, histidine tag
T6 sequence (main, as listed by the source): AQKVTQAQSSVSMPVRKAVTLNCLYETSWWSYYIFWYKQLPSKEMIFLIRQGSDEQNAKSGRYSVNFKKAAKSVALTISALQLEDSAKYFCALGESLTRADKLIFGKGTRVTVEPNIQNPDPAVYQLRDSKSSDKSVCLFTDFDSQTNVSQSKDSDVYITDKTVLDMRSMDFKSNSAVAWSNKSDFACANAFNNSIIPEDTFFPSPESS

[6] = biological target: PD-1 on activated CD4 and CD8 T-cells; experiment: flow cytometry on anti-CD3/anti-CD28-activated CD4 and CD8 T-cells, anti-human IgG secondary antibody, % cells bound IgG
Sequence of PD-1 on activated CD4 and CD8 T-cells (chain, as listed by the source limits assumed): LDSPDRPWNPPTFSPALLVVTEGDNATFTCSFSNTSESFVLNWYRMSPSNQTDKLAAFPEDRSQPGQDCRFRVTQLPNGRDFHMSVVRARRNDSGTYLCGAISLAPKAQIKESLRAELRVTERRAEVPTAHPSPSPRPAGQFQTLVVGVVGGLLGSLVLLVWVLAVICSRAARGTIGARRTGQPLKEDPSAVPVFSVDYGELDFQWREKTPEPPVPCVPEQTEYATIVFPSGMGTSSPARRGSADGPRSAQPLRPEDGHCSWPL

[7] = biological target: T5, Vδ1 chain of the γδ TCR on human Vδ1 γδ …; experiment: flow cytometry, Vδ1 γδ T cells of donor TS164, mAb titrated up to about 500 nM at 4 C, anti-human IgG detection
Procedure: as §4, §5

Recombinant human PD-1 = biological target: T7, Recombinant human PD-1 (human, UniProt Q15116 25-167, limits assumed); experiment: SPR, Reichert 4SPR; antibody captured on Protein A chip, human PD-1 flown over
T7 construct: also called programmed cell death protein 1
T7 sequence (Q15116 25-167 limits assumed): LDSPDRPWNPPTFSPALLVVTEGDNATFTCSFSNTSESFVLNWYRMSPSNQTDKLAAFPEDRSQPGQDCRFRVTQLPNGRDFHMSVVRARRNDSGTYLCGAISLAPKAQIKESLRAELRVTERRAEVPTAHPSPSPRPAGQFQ
Procedure: Recombinant human Vδ1 heterodimer or human PD-1 was flown over the cell at a top concentration of 100 nM.

[8] = biological target: T8, Cyno DV1/GV77 antigen, recombinant cynomolgus Vδ1 heterodimer (cynomolgus monkey); experiment: SPR (Reichert 4SPR), antibody on Protein A chip, Vδ1 heterodimer at 6.25-100 nM as analyte
T8 construct: also called cyno TRDV1; Cyno DV1-77; not shown: delta CDR3/J, TCR constant region, zipper and tag; the whole gamma chain GV77
T8 sequence (delta, as listed by the source limits assumed): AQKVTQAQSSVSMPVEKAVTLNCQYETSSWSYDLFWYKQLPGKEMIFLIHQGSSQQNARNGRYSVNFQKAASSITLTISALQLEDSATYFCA

[9] = biological target: T6, L1 (DV1-GV4), soluble human Vδ1/Vγ4 γδ …; experiment: as above
[10] = biological target: T6, L1 (DV1-GV4), soluble human Vδ1/Vγ4 γδ …; experiment: SPR (Reichert 4SPR), antibody on Protein A chip, antigen flown over; remark: listed apart in the source
Procedure: as §2

Recombinant human OX40 = biological target: T9, Recombinant human OX40 (human, UniProt P43489 29-216, limits assumed); experiment: SPR, Reichert 4SPR; antibody captured on Protein A chip, human OX40 flown over
T9 construct: also called CD134
T9 sequence (looked up): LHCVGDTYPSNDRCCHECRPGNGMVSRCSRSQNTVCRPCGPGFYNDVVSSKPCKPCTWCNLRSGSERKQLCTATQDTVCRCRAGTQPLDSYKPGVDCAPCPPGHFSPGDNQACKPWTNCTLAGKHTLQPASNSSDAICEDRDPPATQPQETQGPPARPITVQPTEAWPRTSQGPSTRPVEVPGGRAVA
Procedure: Recombinant human Vδ1 heterodimer or human OX40 was flown over the cell at a top concentration of 100 nM.

[11] = biological target: T10, FAPα on FAPα+ fibroblasts (human, UniProt Q12884 1-760); experiment: flow cytometry on BJ fibroblasts, anti-human Fc secondary antibody, % IgG bound cells
T10 construct: whole, on cells; also called FAPα+ target cells (BJ fibroblasts, human dermal fibroblasts)
Procedure: After washing, cells were incubated for a further 15 minutes with anti-human Fc secondary antibodies before washing and fixing. The amount of antibody bound to each cell type was determined by flow cytometry.

[12] = biological target: T11, Her2 on Her2+ breast cancer cells (SK-BR-3, BT-474) (human, UniProt P04626 23-1255); experiment: flow cytometry on SK-BR-3 cells, anti-human IgG secondary antibody
T11 construct: whole, on cells; also called ErbB-2; CD340

[13] = biological target: T5, Vδ1 chain of the γδ TCR on human Vδ1 γδ …; experiment: flow cytometry on Vδ1 γδ T-cells, anti-human IgG secondary antibody, % IgG bound cells
Procedure: After washing, cells were incubated for a further 15 minutes with anti-human IgG secondary antibodies before washing and fixing. The amount of antibody bound to each cell type was determined by flow cytometry.

[14] = biological target: T6, L1 (DV1-GV4), soluble human Vδ1/Vγ4 γδ …; experiment: SPR (Reichert 4SPR), antibody on Protein A chip, antigen flown over; remark: listed apart in the source
Procedure: as §3

[15] = biological target: T5, Vδ1 chain of the γδ TCR on human Vδ1 γδ …; experiment: flow cytometry, anti-human IgG secondary antibody, Vδ1 γδ T-cells
Procedure: as §1

[16] = biological target: T12, 4-1BB on activated CD8 T-cells (human, UniProt Q07011); experiment: flow cytometry on anti-CD3/anti-CD28-activated CD8 T-cells, anti-human IgG secondary antibody, % cells bound IgG
T12 construct: also called 4-1BB+ CD8 T-cells
T12 sequence (Q07011 24-255 limits assumed): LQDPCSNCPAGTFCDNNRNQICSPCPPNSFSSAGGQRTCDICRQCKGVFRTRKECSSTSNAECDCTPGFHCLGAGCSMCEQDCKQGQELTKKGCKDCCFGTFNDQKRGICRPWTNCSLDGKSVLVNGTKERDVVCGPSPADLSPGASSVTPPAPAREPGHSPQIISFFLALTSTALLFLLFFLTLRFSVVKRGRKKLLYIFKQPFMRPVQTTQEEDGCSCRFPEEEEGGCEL

IC50 (read off the curve), Vδ1 TCR downregulation, γδ T-cells with activated OX40+ CD4 T-cells [1]: ~0.1 nM
binding result [2]: no binding (tested: 200 nM)
binding result (Recombinant human 4-1BB): no binding
binding result [3]: no binding (tested: 200 nM)
binding result (Recombinant human TIGIT): no binding
EC50 (read off the curve) [4]: ~2 nM
Kd [5]: 0.14 nM
binding result [6]: no binding (tested: 200 nM)
EC50 (read off the curve) [7]: ~2 nM
binding result (Recombinant human PD-1): no binding
Kd [8]: 2.6 nM
Kd [9]: 0.34 nM
Kd [10]: 1.25 nM
binding result (Recombinant human OX40): no binding
binding result [11]: no binding (tested: about 70 nM)
binding result [12]: no binding (tested: about 300 nM)
EC50 (read off the curve) [13]: ~0.3 nM
Kd [14]: 0.29 nM
EC50 (read off the curve) [15]: ~0.2 nM
binding result [16]: no binding (tested: 200 nM)
B1: ADT1-4-2 (antibody, IgG1, V domains shown)
VH: EVQLQQSGPGLVKPSQTLSLTCAISGDSVSSKSAAWNWIRQSPSRGLEWLGRTYYRSKWSTDYAASVKSRITINPDTSKNQLSLQLNSVTPEDTAVYYCARTWVGYVDRWGQGTLVTVSS
VL: DIQMTQSPPALSASVGDRVTITCRASQDINDWLAWYQHKPGKAPKLLIYDASSLESGVPLRFSGSGSGTEFTLTISSLQPDDFATYYCQQKYSAPQVTFGQGTRLEIK
notes: IgG1
